{
  "source": "patent US20160340402A1",
  "about": "(ALMAC DISCOVERY, published 2016)",
  "target": "the molecule itself",
  "test": "SDS PAGE and native PAGE, non-reducing against reducing conditions (self-association)",
  "data": [
    {"protein": "full length recombinant His-tagged FKBP-L protein (variant Thr181, Gly186), N-terminal poly-histidine tag (other, also called recombinant FKBP-L; rFKBP-L) MRGSHHHHHHGMASMTGGQQMGRDLYDDDDKDRWGSMETPPVNTIGEKDTSQPQQEWEKNLRENLDSVIQIRQQPRDPPTETLELEVSPDPASQILEHTQGAEKLVAELEGDSHKSHGSTSQMPEALQASDLWYCPDGSFVKKIVIRGHGLDKPKLGSCCRVLALGFPFGSGPPEGWTELTMGVGPWREETWGELIEKCLESMCQGEEAELQLPGHTGPPVGLTLASFTQGRDSWELETSEKEALAREERARGTELFRAGNPEGAARCYGRALRLLLTLPPPGPPERTVLHANLAACQLLLGQPQLAAQSCDRVLEREPGHLKALYRRGVAQAALGNLEKATADLKKVLAIDPKNRAAQEELGKVVIQGKNQDAGLAQGLRKMFG", "values": [
      {"measurement": "binding result", "result": "binds"}
    ]}
  ]
}
